T1: human lysyl hydroxylase 3 (LH3/PLOD3), wild type (human, UniProt O60568 25-738, N-linked glycosylations at Asn63 and Asn548)
T1 chain: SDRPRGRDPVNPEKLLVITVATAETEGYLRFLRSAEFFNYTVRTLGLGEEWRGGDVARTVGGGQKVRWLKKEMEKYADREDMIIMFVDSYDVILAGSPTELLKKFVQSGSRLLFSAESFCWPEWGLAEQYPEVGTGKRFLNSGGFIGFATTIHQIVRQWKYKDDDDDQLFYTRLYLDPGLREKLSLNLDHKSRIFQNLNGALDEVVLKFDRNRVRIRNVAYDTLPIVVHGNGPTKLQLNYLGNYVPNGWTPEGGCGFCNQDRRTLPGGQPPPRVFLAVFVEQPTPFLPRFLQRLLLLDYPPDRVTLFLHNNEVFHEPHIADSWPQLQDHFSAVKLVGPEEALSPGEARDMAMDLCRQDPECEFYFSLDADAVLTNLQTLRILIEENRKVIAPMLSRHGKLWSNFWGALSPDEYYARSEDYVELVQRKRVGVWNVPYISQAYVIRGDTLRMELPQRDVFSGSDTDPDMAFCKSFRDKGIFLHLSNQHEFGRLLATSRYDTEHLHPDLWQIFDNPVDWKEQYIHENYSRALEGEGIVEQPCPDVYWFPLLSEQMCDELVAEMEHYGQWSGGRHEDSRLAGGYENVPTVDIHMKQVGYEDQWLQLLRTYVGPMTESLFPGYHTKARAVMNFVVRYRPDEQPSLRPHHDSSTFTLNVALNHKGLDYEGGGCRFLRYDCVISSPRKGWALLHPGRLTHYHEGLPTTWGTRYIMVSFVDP


What was measured:
Assay in all cases: SPR
LH3 Y114A mutant = LH3 Y114A mutant (human, UniProt O60568 25-738, Y114A)
LH3 W75A mutant = LH3 W75A mutant (human, UniProt O60568 25-738, W75A)
[1] = target: T1, human lysyl hydroxylase 3 (LH3/PLOD3), …

LH3 Y114A mutant, sequence (O60568 25-738 Y114A): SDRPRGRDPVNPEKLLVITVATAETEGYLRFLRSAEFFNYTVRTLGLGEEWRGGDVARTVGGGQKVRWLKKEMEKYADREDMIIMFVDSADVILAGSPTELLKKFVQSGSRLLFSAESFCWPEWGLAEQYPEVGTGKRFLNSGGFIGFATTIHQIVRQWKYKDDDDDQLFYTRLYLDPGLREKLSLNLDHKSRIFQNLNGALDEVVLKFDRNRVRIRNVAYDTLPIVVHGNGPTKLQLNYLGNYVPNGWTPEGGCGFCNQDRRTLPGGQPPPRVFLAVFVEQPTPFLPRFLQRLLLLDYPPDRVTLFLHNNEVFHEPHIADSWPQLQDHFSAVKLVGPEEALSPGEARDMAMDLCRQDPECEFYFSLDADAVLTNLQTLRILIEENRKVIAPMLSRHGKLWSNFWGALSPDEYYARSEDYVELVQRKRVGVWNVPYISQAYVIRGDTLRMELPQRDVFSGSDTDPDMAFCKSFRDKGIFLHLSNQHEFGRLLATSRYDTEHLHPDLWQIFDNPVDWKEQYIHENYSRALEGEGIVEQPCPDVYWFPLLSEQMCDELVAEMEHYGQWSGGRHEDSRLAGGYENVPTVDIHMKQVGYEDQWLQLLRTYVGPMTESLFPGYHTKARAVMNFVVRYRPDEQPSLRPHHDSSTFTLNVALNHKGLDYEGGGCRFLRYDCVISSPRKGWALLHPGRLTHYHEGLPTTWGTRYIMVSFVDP
LH3 W75A mutant, sequence (O60568 25-738 W75A): as the sequence (O60568 25-738 Y114A) above, with W51A, A90Y counted along it

Kd (LH3 Y114A mutant) [mM]	Kd (LH3 W75A mutant) [mM]	Kd [1] [mM]	Binder
6.3	4.7	4.4	ARGIKGIRGFS
–	–	6.7	IKGIKGIKG
–	–	2.4	GIKGIKGIKGIK

Source: article PMC6082870 (2018)
